We go through one molecule from patent US9962427B2, “Treatment of right ventricular dysfunction due to pressure overload” (OTTAWA HOSPITAL RESEARCH INSTITUTE, priority 2016, dated 2018).

One test has as its system NF-κB. Description: NF-κB luciferase reporter in primary neonatal cardiomyocytes. The class given is cell-based. The settings on record: hCT1 0.5 nM. The protocol:
FIGS. 6A, 6B, and 6C. Stimulation with hCT1 causes sustained activation of NF-κB and Stat3 with limited activation of Mef2, as well as limited Nfat activation; the latter two indices are distinct expression patterns from pathologic hypertrophic stimulation. FIG. 6A Primary neonatal cardiomyocytes were transfected with luciferase reporter plasmids (NF-κB or Mef2), as indicators of hypertrophic activity. Luciferase activity was measured after treatments for 24 hrs with: hCT1 (0.5 nM), PE (100 μM), or procaspase 3 activating compound 1, PAC-1 (25 μM) (left). Treatments at early timepoints (30 min, 1 hr, and 3 hr) were also conducted for hCT1 (right). FIG. 6B Primary neonatal cardiomyocytes were transfected with a luciferase reporter plasmid for Stat3. Luciferase activity was measured after treatments for 24 hrs with: hCT1 (0.5 nM), PE (100 μM), or procaspase 3 activating compound 1, PAC-1 (25 μM) (left) and at earlier time points (right). […] Luciferase activity was measured after treatments for 24 hrs with: hCT1 (0.5 nM), PE (100 μM), or procaspase 3 activating compound 1, PAC-1 (25 μM) (left) and at earlier time points (right)
The signaling pathways that CT-1 engages in mediating physiologic adaptive compensatory remodeling were examined. […] Primary neonatal cardiomyocytes were transfected with luciferase reporter plasmids (NF-κB and Mef2) to be used as a read out of transcriptional activity. […]
In general terms: A reporter such as luciferase makes a cellular process visible.

For the next test, the system named is primary cardiomyocytes. Description: Microarray gene expression analysis of primary cardiomyocytes (Affymetrix Rat gene 2.0ST array). To be noted: 0.5 nM, 24 hours, versus non-stimulated. It counts as cell-based. The protocol:
FIGS. 8A and 8B. […] FIG. 8B Microarray analysis of primary cardiomyocytes stimulated with hCT1 (0.5 nM) for 24 hours.
Applicant explored the role of CT-1 as a pro-angiogenic factor in the adaptive hypertrophic response. Physiologic cardiac adaptive compensation is associated with an increase in capillary density, whereas pathologic response is characterized by a decline or no change at all. Importantly, the compensatory vascular growth/angiogenesis that occurs during physiologic adaptive compensation is permissive for the increased workload that accompanies physiologic adaptive compensation. Despite this adaptation, little information exists regarding the mechanisms that match the demand for angiogenesis to the beneficial form of myocardial growth. The rapid in vitro and in vivo adaptive compensation in response to CT-1 supports a hypothesis that the cardiomyocyte itself may act in a paracrine fashion, to signal and promote angiogenesis. To address this conjecture, Applicant examined whether CT-1 treated primary cardiomyocytes produced vascular endothelial growth factor (VEGF), an angiogenic factor known to be produced and secreted by cardiomyocytes. Primary cardiomyocytes were incubated with control serum-free media (Ctrl, SF media) or stimulated with hCT1 (0.5 nM), PE (100 μM), or PAC-1 (25 μM) for 24 hours. […]

B1: hCT1: Recombinant human CT1 protein; 201 amino acid sequence, GenBank Accession Nos AAD12173 and AAA85229 (human) (protein, UniProt Q16619 1-201, looked up)
Cardiotrophin-1: MSRREGSLEDPQTDSSVSLLPHLEAKIRQTHSLAHLLTKYAEQLLQEYVQLQGDPFGLPSFSPPRLPVAGLSAPAPSHAGLPVHERLRLDAAALAALPPLLDAVCRRQAELNPRAPRLLRRLEDAARQARALGAAVEALLAALGAANRGPRAEPPAATASAASATGVFPAKVLGLRVCGLYREWLSRTEGDLGQLLPGGSA
B1: in the test with NF-κB, the “NF-κB luciferase activity at 1 hr and 3 hr” value was “significant activation”; the “NF-κB transcriptional activity at 24 hrs” value is reported as “sustained”. Besides, in the test with primary cardiomyocytes, the “VEGF increase (microarray)” value came out at 1.3 fold; the “angiogenic and endothelial factors (Angpt14, Flt4, Vwa5a) expression” value is recorded as “robust induction”.
